The results in this text go back to US20050209305A1.

The experiment deals with Candida albicans cell surface hemoglobin receptor (Candida albicans). Put plainly: cell-based or functional assay.

For the substance hemoglobin, the Renilla luciferase activity driven by the CaHMX1 promoter in C. albicans strain CAMP Ki-29, iron-sufficient medium, within 2.5 min of Hb addition is more than 10 fold.
